The data set concerns Escherichia coli TOP10. Put plainly: shrunken log2 fold change of peptide-encoding DNA abundance (4.5 h post-induction vs induction); higher = less antimicrobial activity (less host growth inhibition). As to conditions: time post-induction: 4.5 h; library: site-saturation at positions 5, 18, 19, 20.
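Also: peptides expressed intracellularly from a pBAD plasmid library in pooled LB shake-flask culture, induced with 0.3% L-arabinose, DNA abundance read by NGS, three biological replicates, DESeq2 with apeglm shrinkage.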

Take RRIRFRPPRLPRPRPRPAGAPRP: the “shrunken log2 fold change” value came out at 0.515.

Take RRIRKRPPRLPRPRPRPIPHPRP: the “shrunken log2 fold change” value is 0.359.

With RRIRWRPPRLPRPRPRPLCCPRP, the “shrunken log2 fold change” value is 0.0117.

On to RRIRPRPPRLPRPRPRPEMPPRP, for which the “shrunken log2 fold change” value came to 0.762.

Take RRIRIRPPRLPRPRPRPRPQPRP: the “shrunken log2 fold change” value came to 0.321.

Turning to RRIRDRPPRLPRPRPRPDKQPRP, the “shrunken log2 fold change” value is -0.129.

In the case of RRIRIRPPRLPRPRPRPPLEPRP, the “shrunken log2 fold change” value is -0.272.

As to RRIRTRPPRLPRPRPRPCSGPRP, the “shrunken log2 fold change” value was -0.307.

RRIRARPPRLPRPRPRPICWPRP: the “shrunken log2 fold change” value worked out at 0.231.

As for RRIRHRPPRLPRPRPRPDRLPRP, the “shrunken log2 fold change” value was -0.0627.

Consider RRIRLRPPRLPRPRPRPLPTPRP, for which the “shrunken log2 fold change” value was 0.293.

For RRIRVRPPRLPRPRPRPAWFPRP, the “shrunken log2 fold change” value is 0.0841.

Regarding RRIRYRPPRLPRPRPRPVKYPRP, the “shrunken log2 fold change” value is -0.135.

Consider RRIRRRPPRLPRPRPRPIHGPRP, for which the “shrunken log2 fold change” value is -0.302.

Consider RRIRPRPPRLPRPRPRPVPVPRP, for which the “shrunken log2 fold change” value stood at 0.136.

Take RRIRNRPPRLPRPRPRPFCFPRP: the “shrunken log2 fold change” value turned out to be 0.567.

For RRIRRRPPRLPRPRPRPECPPRP, the “shrunken log2 fold change” value was found to be 0.176.

RRIRWRPPRLPRPRPRPVYSPRP: the “shrunken log2 fold change” value was -0.104.

With RRIRFRPPRLPRPRPRPQRMPRP, the “shrunken log2 fold change” value was -0.29.

For RRIRQRPPRLPRPRPRPKKVPRP, the “shrunken log2 fold change” value was -0.0514.

For the sequence RRIRPRPPRLPRPRPRPVSGPRP, the “shrunken log2 fold change” value was 0.584.

Take RRIRTRPPRLPRPRPRPYNYPRP: the “shrunken log2 fold change” value was -0.866.

Take RRIRMRPPRLPRPRPRPILTPRP: the “shrunken log2 fold change” value was found to be 0.168.

Turning to RRIRLRPPRLPRPRPRPGVQPRP, the “shrunken log2 fold change” value stood at 0.0642.

Turning to RRIRTRPPRLPRPRPRPLYHPRP, the “shrunken log2 fold change” value is -0.48.

With RRIRYRPPRLPRPRPRPQSHPRP, the “shrunken log2 fold change” value is -0.416.

Take RRIRYRPPRLPRPRPRPPDVPRP: the “shrunken log2 fold change” value was -0.0764.

RRIRKRPPRLPRPRPRPGNRPRP: the “shrunken log2 fold change” value came to 0.143.

Consider RRIRARPPRLPRPRPRPLSWPRP, for which the “shrunken log2 fold change” value turned out to be 0.984.

Regarding RRIRRRPPRLPRPRPRPFNNPRP, the “shrunken log2 fold change” value was 0.221.

Take RRIRWRPPRLPRPRPRPWFSPRP: the “shrunken log2 fold change” value came to 0.0565.

Regarding RRIRFRPPRLPRPRPRPKEYPRP, the “shrunken log2 fold change” value is -0.468.

Turning to RRIRDRPPRLPRPRPRPWLWPRP, the “shrunken log2 fold change” value is 0.0548.

Take RRIRYRPPRLPRPRPRPQVLPRP: the “shrunken log2 fold change” value was -0.725.

Take RRIRIRPPRLPRPRPRPVMEPRP: the “shrunken log2 fold change” value is -0.194.

Turning to RRIRNRPPRLPRPRPRPSTSPRP, the “shrunken log2 fold change” value is -0.36.

With RRIRNRPPRLPRPRPRPYQPPRP, the “shrunken log2 fold change” value is -0.31.

On to RRIRTRPPRLPRPRPRPFVVPRP, for which the “shrunken log2 fold change” value is -0.266.

On to RRIRNRPPRLPRPRPRPIHFPRP, for which the “shrunken log2 fold change” value is -0.263.

Turning to RRIRNRPPRLPRPRPRPYNHPRP, the “shrunken log2 fold change” value was -1.85.

Turning to RRIRYRPPRLPRPRPRPQKFPRP, the “shrunken log2 fold change” value was -0.0224.

For RRIRMRPPRLPRPRPRPVTDPRP, the “shrunken log2 fold change” value is -0.0129.

With RRIRQRPPRLPRPRPRPIRHPRP, the “shrunken log2 fold change” value was -0.182.

Take RRIRQRPPRLPRPRPRPCRAPRP: the “shrunken log2 fold change” value was found to be 0.106.

As for RRIRCRPPRLPRPRPRPCREPRP, the “shrunken log2 fold change” value is -0.291.

As for RRIRSRPPRLPRPRPRPCNAPRP, the “shrunken log2 fold change” value was -0.0263.

Consider RRIRERPPRLPRPRPRPKYGPRP, for which the “shrunken log2 fold change” value is -0.567.

As to RRIRARPPRLPRPRPRPKDMPRP, the “shrunken log2 fold change” value was 0.263.

As to RRIRWRPPRLPRPRPRPKDDPRP, the “shrunken log2 fold change” value came to 0.553.

For RRIRDRPPRLPRPRPRPEYFPRP, the “shrunken log2 fold change” value worked out at 0.0472.

Consider RRIRGRPPRLPRPRPRPWEQPRP, for which the “shrunken log2 fold change” value was found to be 0.724.

Consider RRIRFRPPRLPRPRPRPVWWPRP, for which the “shrunken log2 fold change” value came to 0.148.

Turning to RRIRNRPPRLPRPRPRPNQEPRP, the “shrunken log2 fold change” value is -0.0316.

Take RRIRDRPPRLPRPRPRPRKGPRP: the “shrunken log2 fold change” value stood at 0.0785.

Take RRIRFRPPRLPRPRPRPSVTPRP: the “shrunken log2 fold change” value is -0.322.

In the case of RRIRIRPPRLPRPRPRPMSTPRP, the “shrunken log2 fold change” value was -0.211.

Consider RRIRCRPPRLPRPRPRPYPQPRP, for which the “shrunken log2 fold change” value is -0.595.

Regarding RRIRERPPRLPRPRPRPATDPRP, the “shrunken log2 fold change” value is -0.00755.

As to RRIRARPPRLPRPRPRPKFSPRP, the “shrunken log2 fold change” value was 0.173.

In the case of RRIRQRPPRLPRPRPRPYSVPRP, the “shrunken log2 fold change” value is -0.00968.

As for RRIRMRPPRLPRPRPRPYACPRP, the “shrunken log2 fold change” value is -0.0298.

Turning to RRIRKRPPRLPRPRPRPESCPRP, the “shrunken log2 fold change” value came to 0.183.

Take RRIRQRPPRLPRPRPRPWMLPRP: the “shrunken log2 fold change” value is -0.267.

Turning to RRIRSRPPRLPRPRPRPHVLPRP, the “shrunken log2 fold change” value is -0.54.

With RRIRARPPRLPRPRPRPIGTPRP, the “shrunken log2 fold change” value was determined as 0.0903.

On to RRIRYRPPRLPRPRPRPNCMPRP, for which the “shrunken log2 fold change” value was -0.974.

Regarding RRIRLRPPRLPRPRPRPPAQPRP, the “shrunken log2 fold change” value was found to be 0.888.

With RRIRLRPPRLPRPRPRPENHPRP, the “shrunken log2 fold change” value is -0.126.

For the sequence RRIRQRPPRLPRPRPRPETDPRP, the “shrunken log2 fold change” value was -0.167.

Take RRIRMRPPRLPRPRPRPREFPRP: the “shrunken log2 fold change” value came out at 0.0273.

In the case of RRIRIRPPRLPRPRPRPHQHPRP, the “shrunken log2 fold change” value is -0.351.

As to RRIRVRPPRLPRPRPRPACYPRP, the “shrunken log2 fold change” value is -0.0764.

Regarding RRIRMRPPRLPRPRPRPCCTPRP, the “shrunken log2 fold change” value is -0.229.

Regarding RRIRCRPPRLPRPRPRPRWGPRP, the “shrunken log2 fold change” value worked out at 0.495.

For the sequence RRIRMRPPRLPRPRPRPNCRPRP, the “shrunken log2 fold change” value was -0.135.

Regarding RRIRSRPPRLPRPRPRPLDLPRP, the “shrunken log2 fold change” value was -0.154.

As for RRIRQRPPRLPRPRPRPISQPRP, the “shrunken log2 fold change” value amounted to 0.0474.

With RRIRGRPPRLPRPRPRPARNPRP, the “shrunken log2 fold change” value amounted to 0.51.

On to RRIRERPPRLPRPRPRPPYYPRP, for which the “shrunken log2 fold change” value is -0.433.

For RRIRWRPPRLPRPRPRPHSSPRP, the “shrunken log2 fold change” value is -0.0864.

On to RRIRARPPRLPRPRPRPPGTPRP, for which the “shrunken log2 fold change” value stood at 0.898.

With RRIRTRPPRLPRPRPRPDYEPRP, the “shrunken log2 fold change” value was -0.023.

For the sequence RRIRMRPPRLPRPRPRPFPYPRP, the “shrunken log2 fold change” value is -0.23.

For the sequence RRIRNRPPRLPRPRPRPHKAPRP, the “shrunken log2 fold change” value was 0.00883.

Turning to RRIRGRPPRLPRPRPRPQRQPRP, the “shrunken log2 fold change” value was determined as 0.687.

For the sequence RRIRFRPPRLPRPRPRPLQEPRP, the “shrunken log2 fold change” value is -0.203.

With RRIRNRPPRLPRPRPRPHVCPRP, the “shrunken log2 fold change” value was -0.00663.

In the case of RRIRNRPPRLPRPRPRPWYAPRP, the “shrunken log2 fold change” value was -0.533.

For RRIRLRPPRLPRPRPRPAFHPRP, the “shrunken log2 fold change” value was -0.0947.

Turning to RRIRYRPPRLPRPRPRPEWLPRP, the “shrunken log2 fold change” value came to 0.00963.

Consider RRIRARPPRLPRPRPRPAWKPRP, for which the “shrunken log2 fold change” value was found to be 0.398.

These data come from the supplement of paper PMC9112550, “Optimization of the antimicrobial peptide Bac7 by deep mutational scanning” (BMC Biology, 2022).
